Some results are limits rather than exact numbers.

Test [1] has as its target T1, recombinant human PDGF-BB (human, UniProt P01127 82-190, biotin-labelled in the binding and competition ELISAs (sites not given)). Nature of the test: cell-based or functional assay.
In test [2] the target is T1, recombinant human PDGF-BB. In words: receptor competition ELISA: antibody pre-incubated with biotin-hPDGF-BB, binding to coated hPDGF-Rβ-Fc. Here is the method: (§1) Plates were then washed four times with wash buffer (TBS, 0.05% Tween-20) and blocked with Superblock blocking buffer (Thermo Scientific, cat#37535). During the blocking step, supernatants, antibodies, benchmark compounds or DVD-Ig were diluted in assay diluent (10% Superblock containing 0.05% surfactamps) and an eight point titration of each sample molecule was performed. […] Following incubation, plates were washed four times with wash buffer. Detection reagent Streptavidin-polyHRP-40 (Fitzgerald, cat#65r-s104phrp) was diluted in assay diluent and added to plates (50 μL) for 45 minutes at 25° C. with shaking. Plates were washed four times with wash buffer and developed with the addition of Enhanced K-blue TMB substrate (Neogen, cat#308177). The reaction was stopped with 2N sulfuric acid (VWR, cat# BDH3500-1) and the absorbance was read at 450 nm-570 nm. […] Data was analyzed using Softmax Pro 4.8 software and IC₅₀ values calculated using a sigmoidal dose response (variable slope) fit in GraphPad Prism 5.
On the technique in general: An ELISA detects its analyte on a solid surface through an enzyme-linked reagent.

For test [3], the target named is T2, recombinant human VEGF165 (human, UniProt P15692 207-395). Nature of the test: cell-based or functional assay.
Test [4] has as its target T3, recombinant human PDGF-BB (human, UniProt P01127 82-190). Nature of the test: cell-based or functional assay.
For test [5], the target named is T3, recombinant human PDGF-BB. In words: competition ELISA: blocks hPDGF-BB-biotin binding to coated hPDGF-Rβ-Fc. Here is the method: as §1
Test [6] addresses T2, recombinant human VEGF165. In words: competition ELISA: blocks biotinylated hVEGF165 binding to coated hVEGF-R2-Fc. Here is the method:
To identify molecules that could block the binding of hVEGF₁₆₅ to the hVEGF-R2 (KDR/Flk-1) receptor, a competition ELISA was performed. […] Plates were then washed four times with wash buffer (TBS, 0.05% Tween-20) and blocked with Superblock blocking buffer (Thermo Scientific, cat#37535). […] The pre-incubated sample/hVEGF₁₆₅ complex was added to the coated plate at 50 μL in duplicate and incubated for 30 minutes at 25° C. with shaking. Following incubation, plates were washed four times with wash buffer. Streptavidin-polyHRP-40 (Fitzgerald cal#65r-s104phrp) was diluted in assay diluent (10% Superblock containing 0.05% surfactamps) and added to plates (50 μL) for 45 minutes at 25° C. with shaking. Plates were washed four times with wash buffer and developed with the addition of Enhanced K-blue TMB substrate (Neogen cat#308177). The reaction was stopped with 2N sulfuric acid (VWR, cat# BDH3500-1) and the absorbance was read at 450 nm-570 nm. A decrease in observed optical density indicates the test molecule is blocking the hVEGF₁₆₅ binding to the hVEGF-R2-Fc. Data was analyzed using Softmax Pro 4.8 software and IC₅₀ values calculated using a sigmoidal dose response (variable slope) fit in GraphPad Prism 5.

T2 sequence (P15692 other isoform, or with tags, fused parts or gaps limits assumed): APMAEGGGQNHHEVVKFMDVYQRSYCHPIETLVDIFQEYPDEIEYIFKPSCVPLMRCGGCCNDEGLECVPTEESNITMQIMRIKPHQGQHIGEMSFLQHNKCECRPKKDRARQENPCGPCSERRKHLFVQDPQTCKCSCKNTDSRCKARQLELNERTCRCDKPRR
T3 sequence (P01127 82-190 limits assumed): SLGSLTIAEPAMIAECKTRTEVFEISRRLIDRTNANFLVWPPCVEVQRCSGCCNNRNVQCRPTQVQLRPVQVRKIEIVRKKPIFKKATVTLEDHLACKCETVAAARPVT
T1 sequence (P01127 82-190 limits assumed): as above

B1: chBDI-1E1 (antibody, human IgG1, V domains shown)
VH: EVKLQQSGDELVRPGASVKMSCKASGYTFTDYVMHWVKQSPGQGLEWIGTIIPLIDTTSYNQKFKGKATLTADKSSNTAYMELSRLTSEDSAVYYCARTSPYYYSSYDVMDAWGQGASVTVSS
VL: NIQLTQSPSLLSASVGDRVTLSCKGSQNINNYLAWYQQKLGEAPKLLIYKTNNLQTGIPSRFSGCGSGTDYTLTISSLHSEDLATYYCYQYDNGYTFGAGTKLELK
notes: also called chimeric BDI-1E1-D5
With B1, in test [1], the “huPDGF-BB Neutralization Potency (nM) in NIH-3T3 Cells” value is > 5 nM. In addition, the IC50 in test [2] was 0.417 nM.

B2: 9E10.1_GS_CL-33675 (bispecific antibody, human IgG1, kappa, L234A L235A)
heavy: EIQLVQSGSELKKPGASVKVSCKASGYTFTNYGMYWVKQAPGQGLEYMGWIDTETGRPTYADDFKGRFVFSLDTSVSTAYLQISSLKAEDTAVYFCARWSGDTTGIRGPWFAYWGQGTLVTVSSGGGGSGGGGSEVTLRESGPALVKPTQTLTLTCTFSGFSLSTYGMGVGWIRQPPGKALEWLANIWWDDDKYYNPSLKNRLTISKDTSKNQVVLTMTNMDPVDTATYYCARIESSGPKYSFDYWGQGTMVTVSSASTKGPSVFPLAPSSKSTSGGTAALGCLVKDYFPEPVTVSWNSGALTSGVHTFPAVLQSSGLYSLSSVVTVPSSSLGTQTYICNVNHKPSNTKVDKKVEPKSCDKTHTCPPCPAPEAAGGPSVFLFPPKPKDTLMISRTPEVTCVVVDVSHEDPEVKFNWYVDGVEVHNAKTKPREEQYNSTYRVVSVLTVLHQDWLNGKEYKCKVSNKALPAPIEKTISKAKGQPREPQVYTLPPSREEMTKNQVSLTCLVKGFYPSDIAVEWESNGQPENNYKTTPPVLDSDGSFFLYSKLTVDKSRWQQGNVFSCSVMHEALHNAYTQKSLSLSPGK
light: DIRMTQSPSSLSASVGDRVTIECLASEDIYSDLAWYQQKPGKSPKLLIYNANGLQNGVPSRFSGSGSGTDYSLTISSLQPEDVATYFCQQYNYFPGTFGQGTKLEIKGGSGGGGSGGEIVLTQSPGTLSLSPGERATLSCRASSGSIWYSFVSWYQQKPGQAPRLLIYADDQRASGIPDRFSGSGSGTDFTLTISRLEPEDFAVYYCQSYGINIDVVFGGGTKVEIKRTVAAPSVFIFPPSDEQLKSGTASVVCLLNNFYPREAKVQWKVDNALQSGNSQESVTEQDSKDSTYSLSSTLTLSKADYEKHKVYACEVTHQGLSSPVTKSFNRGEC
notes: DVD-Ig, outer hBEW-9E10.1, inner CL-33675, GS-H10/GS-L10(dR), hu IgG1/k LALA H435A; also called PR-1610561; 9E10.1-GS-33675
In the case of B2, the “Potency IC50 (nM) HMVEC-d hVEGF165” value in test [3] worked out at 0.145 nM. The “Potency IC50 (nM) NIH-3T3 hPDGF-BB” value in test [4] came out at 0.034 nM. In addition, the results for the IC50 in test [5] and in test [6] were 0.09 nM and 0.045 nM, respectively.

B3: hVEGF 4G8.3-SL-hPDGF 9E8.4 [hu IgG1/k] mut(234, 235) H435A (bispecific antibody)
heavy: EVQLVQSGSELKKPGASVKVSCKASGYTFTNYGMYWVRQAPGQGLEWMGWINTETGKPTYADDFKGRFVFSLDTSVSTAYLQISSLKAEDTAVYYCARTNYYYRSYIFYFDYWGQGTMVTVSSASTKGPEVTLRESGPALVKPTQTLTLTCTFSGFSLSTYGMGVGWIRQPPGKALEWLANIWWDDDKYYNPSLKNRLTISKDTSKNQVVLTMTNMDPVDTATYYCARIESIGTTYSFDYWGQGTMVTVSSASTKGPSVFPLAPSSKSTSGGTAALGCLVKDYFPEPVTVSWNSGALTSGVHTFPAVLQSSGLYSLSSVVTVPSSSLGTQTYICNVNHKPSNTKVDKKVEPKSCDKTHTCPPCPAPEAAGGPSVFLFPPKPKDTLMISRTPEVTCVVVDVSHEDPEVKFNWYVDGVEVHNAKTKPREEQYNSTYRVVSVLTVLHQDWLNGKEYKCKVSNKALPAPIEKTISKAKGQPREPQVYTLPPSREEMTKNQVSLTCLVKGFYPSDIAVEWESNGQPENNYKTTPPVLDSDGSFFLYSKLTVDKSRWQQGNVFSCSVMHEALHNAYTQKSLSLSPGK
light: DTVLTQSPATLSLSPGERATLSCRASESVSTHMHWYQQKPGQAPRLLIYGASNLESGVPARFSGSGSGTDFTLTISSLEPEDFAVYFCQQSWNDPFTFGQGTKLEIKRTVAAPSVFIFPPEFVLTQSPGTLSLSPGERATLSCERSSGDIGDSYVSWYQQKPGQAPRLVIYADDQRPSGIPDRFSGSGSGTDFTLTISRLEPEDFAVYYCQSYDINIDIVFGGGTKVEIKGTVAAPSVFIFPPSDEQLKSGTASVVCLLNNFYPREAKVQWKVDNALQSGNSQESVTEQDSKDSTYSLSSTLTLSKADYEKHKVYACEVTHQGLSSPVTKSFNRGEC
notes: DVD-Ig, outer hBDB-4G8.3, inner hBDI-9E8.4, HG-short/LK-long; also called 4G8.3-SL-9E8.4
Regarding B3, the “Potency IC50 (nM) HMVEC-d hVEGF165” value in test [3] was determined as 0.36 nM. Moreover, the “Potency IC50 (nM) NIH-3T3 hPDGF-BB” value in test [4] stood at 0.427 nM. Moreover, the values for the IC50 in test [5] and in test [6] were > 5 nM and 0.133 nM, respectively.

B4: hVEGF 4G8.3-GS-hPDGF 9E8.4 [hu IgG1/k] mut(234, 235) H435A (bispecific antibody)
heavy: EVQLVQSGSELKKPGASVKVSCKASGYTFTNYGMYWVRQAPGQGLEWMGWINTETGKPTYADDFKGRFVFSLDTSVSTAYLQISSLKAEDTAVYYCARTNYYYRSYIFYFDYWGQGTMVTVSSGGGGSGGGGSEVTLRESGPALVKPTQTLTLTCTFSGFSLSTYGMGVGWIRQPPGKALEWLANIWWDDDKYYNPSLKNRLTISKDTSKNQVVLTMTNMDPVDTATYYCARIESIGTTYSFDYWGQGTMVTVSSASTKGPSVFPLAPSSKSTSGGTAALGCLVKDYFPEPVTVSWNSGALTSGVHTFPAVLQSSGLYSLSSVVTVPSSSLGTQTYICNVNHKPSNTKVDKKVEPKSCDKTHTCPPCPAPEAAGGPSVFLFPPKPKDTLMISRTPEVTCVVVDVSHEDPEVKFNWYVDGVEVHNAKTKPREEQYNSTYRVVSVLTVLHQDWLNGKEYKCKVSNKALPAPIEKTISKAKGQPREPQVYTLPPSREEMTKNQVSLTCLVKGFYPSDIAVEWESNGQPENNYKTTPPVLDSDGSFFLYSKLTVDKSRWQQGNVFSCSVMHEALHNAYTQKSLSLSPGK
light: DTVLTQSPATLSLSPGERATLSCRASESVSTHMHWYQQKPGQAPRLLIYGASNLESGVPARFSGSGSGTDFTLTISSLEPEDFAVYFCQQSWNDPFTFGQGTKLEIKRGGSGGGGSGEFVLTQSPGTLSLSPGERATLSCERSSGDIGDSYVSWYQQKPGQAPRLVIYADDQRPSGIPDRFSGSGSGTDFTLTISRLEPEDFAVYYCQSYDINIDIVFGGGTKVEIKGTVAAPSVFIFPPSDEQLKSGTASVVCLLNNFYPREAKVQWKVDNALQSGNSQESVTEQDSKDSTYSLSSTLTLSKADYEKHKVYACEVTHQGLSSPVTKSFNRGEC
notes: DVD-Ig, outer anti-VEGF hBDB-4G8.3, inner anti-PDGF hBDI-9E8.4; also called 4G8.3-GS-9E8.4
Take B4: in test [3], the “Potency IC50 (nM) HMVEC-d hVEGF165” value was 0.341 nM. For the same molecule, the “Potency IC50 (nM) NIH-3T3 hPDGF-BB” value in test [4] turned out to be 0.63 nM. Besides, the IC50 is > 5 nM in test [5] and 0.137 nM in test [6].

B5: hVEGF 4G8.3-LS-hPDGF 9E8.4 [hu IgG1/k] mut(234, 235) H435A (bispecific antibody)
heavy: EVQLVQSGSELKKPGASVKVSCKASGYTFTNYGMYWVRQAPGQGLEWMGWINTETGKPTYADDFKGRFVFSLDTSVSTAYLQISSLKAEDTAVYYCARTNYYYRSYIFYFDYWGQGTMVTVSSASTKGPSVFPLAPEVTLRESGPALVKPTQTLTLTCTFSGFSLSTYGMGVGWIRQPPGKALEWLANIWWDDDKYYNPSLKNRLTISKDTSKNQVVLTMTNMDPVDTATYYCARIESIGTTYSFDYWGQGTMVTVSSASTKGPSVFPLAPSSKSTSGGTAALGCLVKDYFPEPVTVSWNSGALTSGVHTFPAVLQSSGLYSLSSVVTVPSSSLGTQTYICNVNHKPSNTKVDKKVEPKSCDKTHTCPPCPAPEAAGGPSVFLFPPKPKDTLMISRTPEVTCVVVDVSHEDPEVKFNWYVDGVEVHNAKTKPREEQYNSTYRVVSVLTVLHQDWLNGKEYKCKVSNKALPAPIEKTISKAKGQPREPQVYTLPPSREEMTKNQVSLTCLVKGFYPSDIAVEWESNGQPENNYKTTPPVLDSDGSFFLYSKLTVDKSRWQQGNVFSCSVMHEALHNAYTQKSLSLSPGK
light: DTVLTQSPATLSLSPGERATLSCRASESVSTHMHWYQQKPGQAPRLLIYGASNLESGVPARFSGSGSGTDFTLTISSLEPEDFAVYFCQQSWNDPFTFGQGTKLEIKRTVAAPEFVLTQSPGTLSLSPGERATLSCERSSGDIGDSYVSWYQQKPGQAPRLVIYADDQRPSGIPDRFSGSGSGTDFTLTISRLEPEDFAVYYCQSYDINIDIVFGGGTKVEIKGTVAAPSVFIFPPSDEQLKSGTASVVCLLNNFYPREAKVQWKVDNALQSGNSQESVTEQDSKDSTYSLSSTLTLSKADYEKHKVYACEVTHQGLSSPVTKSFNRGEC
notes: DVD-Ig, outer hBDB-4G8.3, inner hBDI-9E8.4, HG-long/LK-short; also called PR-1575573; 4G8.3-LS-9E8.4
Take B5: the IC50 was > 5 nM in test [5] and 0.131 nM in test [6].

Broadly, the IC50 is the concentration that inhibits the measured activity by half.
